Results: patent US20100184837

Assays:
[1] = biological target: GST-E2 (HCV envelope glycoprotein E2) (Hepatitis C virus) (UniProt P27958); experiment: competition; conditions: decreased from 36.7% without aptamer
[2] = biological target: HCV envelope glycoprotein E2 (expressed on CT26-HCV-E2 cells) (Hepatitis C virus) (UniProt P27958); experiment: flow; conditions: strongest binding among rounds; 8 ug ssDNA with 10^6 cells
HCV envelope glycoprotein E2 (expressed on CT26-HCV-E2 cells) (Hepatitis C virus), sequence (P27958 384-746): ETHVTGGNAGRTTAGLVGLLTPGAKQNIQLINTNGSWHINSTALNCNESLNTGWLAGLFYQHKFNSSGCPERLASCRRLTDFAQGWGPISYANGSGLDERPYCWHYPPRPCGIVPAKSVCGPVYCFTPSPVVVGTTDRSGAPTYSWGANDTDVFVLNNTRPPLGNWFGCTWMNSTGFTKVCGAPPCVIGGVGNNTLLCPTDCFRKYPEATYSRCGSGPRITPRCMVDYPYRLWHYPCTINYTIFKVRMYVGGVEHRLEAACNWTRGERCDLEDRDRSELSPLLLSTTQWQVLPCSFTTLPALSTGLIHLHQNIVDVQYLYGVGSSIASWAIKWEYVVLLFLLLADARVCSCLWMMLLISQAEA

GST-E2 (HCV envelope glycoprotein E2) (Hepatitis C virus), sequence (P27958 384-746): as above

GCGGAATTCTAATACGACTCACTATAGGGAACAGTCCGAGCCNNNNNNNNNNNNNNNNNNNNNNNNNNNNNNGGGTCAATGCGTCATA [13th round ssDNA aptamer library]
activity (% E2 binding to Huh 7.5.1 cells) [1]: 23.2
binding (% cells bound) [2]: 89
